Laboratory results taken from the nanobody polyreactivity screen of Harvey et al. (2022).

Test: yeast display, Sf9 membrane polyspecificity reagent, FACS + sequencing; frameworks hold sequencing errors
How it was run: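 After 36–48 hours of galactose induction, yeast (Saccharomyces cerevisiae BJ5465) displaying a synthetic nanobody library were stained at 4 °C for 1 hour with 10% biotinylated, detergent-solubilized Sf9 membrane reagent. Streptavidin microbeads enriched the stained cells before FACS sorting into low and high (top ~1%) gates on anti-HA and streptavidin fluorescence. Each clone's polyreactivity label reflects its gate of origin.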

Row | Sequence | polyreactivity (PSR sort gate)
1 | QVQLVESGGGLVQAGGSLRLSCAASGSTFDSYAIGWYRQAPGKERELVAGISIVGSTNYADSVKGRFTISPDNAKNTVYLQLNSLKPEDTAVYYCNAGYFRGSNAIKVRLTYDHWGQGTQVTVSS | low polyreactivity
2 | QVQLVESGGGLLQAGGSLRLSCAASGRIIGWYAMGWYRPAPGKERELVAAISRGGTRTNYADSVKGRFTISRDNAKNTVYLQMNSLKPEDTAVYSCAAGGSWCQNGYWGQGTQVTVSS | high polyreactivity
3 | QVQLVESGGGLVQAGGSLRLSCAASGITLLYNAMGWYRQAPGKERELVAGITGRGGSTYYADSVKGRFTISRDNAKNTVSLQMNSLKPEDNAVYYCAATTDYRYVGRIVIRDDHWGQGTQVTVSS | low polyreactivity
4 | QVQLVESGGGLVQAGGSLRLSSAASGRLFSEYAMGWYRQAPGKERELVAAISRRGGRTYYADSVKGRFTISRDNAKNTVYVQMNSLIPEDTAVYYCAADHGDPGGYDYWGQGSQVTVSS | high polyreactivity
5 | QVQLVESGGGLVHAGGSLRLSCAASGRIFKNYVMGWYRQAPGKERELVAGISSSGGSTYYADSVKGRFTISRYNAKNTVYLQMNSLKPEDTAVYYCAADYTFAYYNFKMDYWGQVTQVTVSS | low polyreactivity
6 | QVQLVESGGGLVQAGGSLRLSCAASGGTLSYYAMGWYRQAPGKERELVAGISRRGGSTYYADSVKGRFTISRDNAKNTVYLQMNSLNPEDTAVYYCAADSNRHYYYWGQGTQVTVSS | high polyreactivity
7 | QVQLVESGGGLVQAGGSLRLSCAASGFTFAFYTMGWYRQAPGKERELVAGITRSGTNTYYADSVKGRFTISRDNAKNTVYLQMNSLKPEDTAVYYCAAAIRPGMDYWGQGTQVTVSS | high polyreactivity
8 | QVQLVESGGGLVQAGGTLRLSCAASGRISAFNAMGWYRQAPGKERELVAAIHVSGGNTYYADSVKGRFTISRDNAKNTVYLQMNSLKPEDTAVYYCAAERRRWGVDYYYWGQGTQVTVST | high polyreactivity
9 | QVQLVESGGGLVQAGGSLRLSCAASGAIFDSNAMGWYREAPGTERELVASIDRGGDTNYADSVKGRFTISRDNAKNTVYLQMNSLKPEDTAVYYCAAYYYKWVWIGMDYWGQGTQVTVSS | low polyreactivity
10 | QVQLVESGGGLVQAGGSLRLSCAASGSTFYLYAMGWYRQAPGKERELVAVITTDGSTTYADSVKGRFTISRDNAKNTVYLQMNSLKPEDTAVYYCAAYGGNGQYYSQYDYWGQGTQVTVSS | low polyreactivity
11 | QVQLVESGGGLVQAGGSLRLSCAASGRTFAKYAMGWYRQAPGKERELVAAITSGGRTNYADSVKGRFTISRDNAKNTVYLQMNSLKPEDTAVYYCAARRYVVGYFQSKMDYWGQGTQVTVSS | high polyreactivity
12 | QVQLVESGGGLVQAGGSLRLSCAASGITFPQNAMGWYRQAPGKERELVATIDNVGSTNYADSVKGRFTISRDNAKNTVYLQMNSLKPEDTAGYYCAKDYDWTLDYDGYPGYDYWGQGTQVTVSS | high polyreactivity
13 | QVQLVESGGGLVQAGGSLRLSCAASGLIFQVYTMGWYRQAPGKERELVAAISWDAGSTYYADSVKGRFTISRDNAKNTVYLQMNSLKPEDTAVYYCAAKRKIRGYGPYEYWGQGTQVTVSS | high polyreactivity
14 | QVQLVESGGGLVQAGGSLRLSCAASGSTFYDNAMGWYRQAPGKERELVASIRSGGSTKYADSVKGRFTISRDNAKNTVYLQMNSLKPEDTAVYYCATAFIVPFPGSDYWGQGTQVTVSS | low polyreactivity
15 | QVQLVESGGGLVQAGGSLRLSCAASGRTFWYNAMGWYRQAPRKERELVAAISSGSSTKYADSVKGRFTISRDNAKNTVYLQMNSLKPEDTAVYYCARGGWAYCPRYNYWGQGTQVTVSS | high polyreactivity
16 | QVQLVESGGGLVQAGGSLRLSCAASGRTFWENAMGWYRQAPGKERELVAAISGDSGSTYYADSVKGRFTISRDNAKNTVYLQMNSLKPEDTAVYYCAADSDRDDSYPYYYWGQGTQVTVSS | low polyreactivity
17 | QVQLVESGGGLVQAGGSLRLSCAASGLTFYSNAMGWYRQAPGKERELVARISTGGSTYADSVKGRFTISRDNAKNTVYLQMNSLKPVDTAVYYCAVDGWDDTYFRQDMDYWGQGTQVTVSS | low polyreactivity
18 | QVQLVESGGGLVQAGGSLRLSCAASGSIFVINAMGWYRQAPGKERELVAAISYSGTGTYYADSVKGRFTISRDNAKNTVYLQMNSLKAEDTAVYYCAADFYYRYRIYDYWGQGTQVTVSS | low polyreactivity
19 | QVQLVESGGGLVQAGGSLRLSCAASGSTFHPNAMGWYRQAPGKERELVAISSGDDTYYADSVKGRFTISRDIAKNTVYLQMKSLKPEDTAVYYCAAEYSFIYYWGQGTQVTVSS | low polyreactivity
20 | QVQLVESGGGLVQAAGRLRLSCAASGRIFQWNAMGWSRQAPGKERQLVATISSRGGSTYYADSVKGRFTISRDNEKITVYLQMNSLIPEDTAVYYCAARYYAKYRSYDYWGQGSQVTVSS | high polyreactivity
21 | QVQLVESGGGLVQAGVSLRLSCAASGNIFEQYAMGSDRQAPGKERELVARISWRGGSTYYADSVKGRFTISRDNAKNTVYLQLNSLKPEDTAVYYCNALEVVYFGYYPSDYWGQGTQVTVSS | low polyreactivity
22 | QVQLVESGGGLVQAGGSLRLSCAASGRLFYLNAMGWYRQAPGKERDLVAAISGSTGSTYYADSVKGRITISRDNAMNPVYLHMTSLKPVDTAVYYSNAGGVYVEFNYWGQGTQVTVSS | low polyreactivity

Row | Sequence | polyreactivity (PSR sort gate)
23 | QVQLVESGGGLVQAGGSLRLSCAASGRTFKGYTMGWYRQAPGKERELVAAITRSGGGTYYADSVKGRFTISRDNAKNTVYLQMNSLKPEDTAVYYCAARRPGYYYPSKFDYWGQGTQVTVSS | high polyreactivity
24 | QVQLVESGGGVVQAGGSLRLSCAASGRIFYKYAMGWYRQAPGKAREFVATISSSGGSTYYADSVKGRFTISRDNAKNTAYLQMNSLKPEDTAVYYCAARYGRVTREYWGQGTQVTVSS | high polyreactivity
25 | QVQLVESGGGLVQAGGSLRLSCAASGSIIRGNAMGWYRQAPGKERELVAAISKRGGSTYYADSVKGRFTISRDNAKNTVYLQMNSLKPEDTAVYYCASDLPAALGFDYWGQGTQVTVSS | high polyreactivity
26 | QFQLVESGGGLVQAGGSLRLSCAASGITFYRYAMGWYRQAPGKERELVASISSRGSSTYYADSVKGRFTISRDNAKNTVYLQMNSLKPEDTAVYYCAKSRGSRGFVASTYNYWGQGTQVTVSS | high polyreactivity
27 | QVQLVESGGGLVQAGGSLRLSCAASGRIFVDNAMGWYRQAPGKERELVAAINYSGGGTYYADSVKGRFTISRDNAKNTVYLQMNSLKPEDTAVYYCAADSDSFWGVPSYYWGQGTQVTVSS | low polyreactivity
28 | QVQLVESGGGLVQAGGSLRLSCAASGIIFDEYAMGWYRQAPGKEMELVAGITIGGSTNYADSVKGRLTISRDNAKNTVYLQMNSLKPEDTAVYYCDYLGQGTQVTVSS | low polyreactivity
29 | QVQLVESGGGLVQAGGSLRLICAASGRTCWKYVMGWYRQAPGKERDLVAVISSDGITNYADSVKGRFTISRDNAKNTVYLQMNSLKPEDTAVYYCNAGPDDYVGYWGKYDYWGQGTQVTVSS | low polyreactivity
30 | QVQLVESGGGLVQAGGSLRLSCAATRRTFYSYAMGWYRQAPGKESELLASITSTGSTYYADSVKGRFTISRDNAKNTVYLQMNSLKPEDTAVYYCAARRQPRYSQRSTYYYWGQGTQVTVSS | high polyreactivity
31 | QVQLVESGGGLVQAGGSLRLSCAASGGTFSKYAMGWYRQAPGKEREFVAAITVSGGGTYYADSVKGRFTISRDNAKYTVYLQMNSLKPEDTAVYDCAADLAWTASDYWGQVTQVTVSS | low polyreactivity
32 | QVQLVESGGGLVQAGGSLRLSCAASGSIFGYYAMGWYRQAPGKERELVAAISSGGNTNYADSVKGRFTISRDNAKNTVYLQMNSLKPEDTAVYYCATRARYKRIRYDYWGQGTQVTVSS | high polyreactivity
33 | QVQLVESGGGLVEAGGSLRLSCAASGIIFVYNAMGWSRKAPGKERELVADINWRGDGTYYSDSVKGRFTISPDNAKNTVYLQMNSLKPEDTAVYYCNAVRFRPNSHYRPVGYEYWGQGTQVTESS | low polyreactivity
34 | QVQHVESGGGIVHAGGSLRLSCAASGSIFTRYTMGWDRMATGKERELVAVISDSSGRTYYADSVKGRFTISRDNAKNTFYLQLNSLKPADTAVYYCAAEYSDIYEYWGQGTQVTVSS | low polyreactivity
35 | QVQLVESGGGLVQAGGSLRLSCAASGFTFFRNAMGWYRQAPGKEMELVAAISGSGGSTYYADSVKGRFTISRDNAKNTVYLQINSLKPEDTAVYYCATYSYPAKVPEAYNYWGQGSQVTVSS | low polyreactivity
36 | QVQLVESGGGLVQAGGSLRLSCAASGNIFYYNAMGWYRQAPGKVRELVAAITRSAGSTYYADSVKGRFPISRDNAKNTVYLQMNSLKPEDTAVYYCAATYSDLGYRYYSLGQGTQVTVSS | high polyreactivity
37 | QVQLVESGGGLVQAGGSLRLSCAASGSIFTPYVMGWYRQAPGKERELVAAISKRGTRTYYADSVTGRFTISRDNAKNTVYFQMNSLKPEDTAVYYCNAAVDYGSEHDYWGQGTQVTVSS | high polyreactivity
38 | QVQLVESGGGIVQAGGSLRLSCAASGGIFDYNAMGWYRQAPGKERELVAAISGSDVSTYYADSVKGRFTISRDNAKNTVYLQMKSLKPEDTAVYYCAADAPWAYYEYDYWGQGTQVTVSS | low polyreactivity
39 | QVQLVESGGGLVQAGCSLRLSCAASGRIFTSNAMGWYRQAPGTERELVAVISRRGGSTYYADSVKGRFTISRDNAMNTVYLQMNSLKPEDTAVYYCARRPYSYTRYEYWGQGTQVTVSS | low polyreactivity
40 | QVQLVESGGCLVQAGGSLRLSCAASGLTFRGYAKGWYRPAPGKERELVAAITSSAGRTNYADSVKGRFTISRDNAKNTVYLQMNSLNPEDTAVYYCAAAHSYTTRWGYYKFNYWGQGTQVSVSS | high polyreactivity
41 | QVQLVESGGGLVQAGGSLRLSCAASGSIFGIYAMGWYRQAPGKERELVATITYSGGTTYADSVKGRFTISRDNAKNTVYLQMNSLNPEDTAVYYCAAGGDYAYDCWGQGTQVTVSS | low polyreactivity
42 | QVQLVESGGGLVQAGGSLRLSCAASGRTIWWYAMGWYRQAPGKERELVAAITWIGGSTYYADSVKGRFTISRDNAKNTVYLQMNSLKPEDTAVYYCATDKDDVSDLGKDYAYFEYDYWGQGTQVTVSS | low polyreactivity
43 | QVQLLETGAGLVHAGGSLRLSCAAYGFIFRDYAMGCYRQAPGKERELVAAIYYSGGSTYYADSVKGRFTISRDNAKNTVYLQLNSLKPEDTAVYYCNAVNPYYAPTDRRVGYDYWGQGTQVTVSS | high polyreactivity
